In assay [1] the target is T1, human GLP-1 receptor (human, UniProt P43220 24-463).
T1 construct: whole, on cells; Used as purified membranes of the transfected hamster cells, not whole cells; also called hGLP-1
Description: SPA, 2.0% vs 0.005% HSA.

The target in assay [2] is T1, human GLP-1 receptor. Nature of the assay: SPA, displacement of 125I-GLP-1(7-36)NH2, 0.005% HSA. In general terms: In a radioligand displacement assay an active substance lowers the binding of a labelled ligand.

*1 amine or outer side, *2 acyl side, *3 side chain or, on linkers, in order; H or OH if unused. Where no end group is shown, it is not given here. Side-chain parts run from the residue outwards. [ ]: non-standard residue; d: D form. The star is where a group is joined. Decanoyl(10-(4-HOOC-PhO)) = O=C(O)c1ccc(OCCCCCCCCCC(=O)*)cc1; γGlu = O=C(O)[C@H](CCC(=O)[*:2])N[*:1]; AEEA = NCCOCCOCC(=O)O; Aib = CC(C)(N)C(=O)O Some results are limits rather than exact numbers.

Take H[Aib]EGTFTSDVSK([AEEA-γGlu-AEEA-Decanoyl(10-(4-HOOC-PhO))])YLEEQAAK([AEEA-γGlu-AEEA-Decanoyl(10-(4-HOOC-PhO))])EFIAWLVQGRG [GLP-1 derivative of Example 90: [Aib8,Lys18,Glu22,Gln34]-GLP-1-(7-37)-peptide]: the “ratio IC50 high HSA/IC50 low HSA” value in the assay with human GLP-1 receptor [1] was above 1. Also, the IC50 in the assay with human GLP-1 receptor [2] is below 1000 nM.

In general, IC50 refers to the concentration needed to halve the response being measured. Read a low IC50 as greater potency in that assay.
